Consider six molecules from publication PMC11661448, “Molecular basis for plasma membrane recruitment of PI4KA by EFR3” (Science Advances, 2024).

Common to all, as to conditions: both partners purified
For assay [1], the target named is T1, PI4KA/TTC7B/FAM126A ΔC (PI4KA complex) (human, UniProt P42356 1-2102; Q86TV6 1-843; Q9BYI3 1-308).
T1 construct: phosphatidylinositol 4 kinase III alpha (PI4KA), human, full length; TTC7B, human, full length; FAM126A, human, residues 1 to 308 (lacks the disordered C terminus); Dimer of heterotrimers; A His-Strep tag was cleaved with TEV protease; also called PI4KA-TTC7B-FAM126A (1 to 308); PI4KA-TTC7B-FAM126A complex; source: Sf9 (MultiBac baculovirus), co-expressed, purified (HisTrap, StrepTrap, TEV …)
Kind of assay: SEC; Superose 6 Increase in 150 mM NaCl, 20 mM imidazole pH 7.0, 5% glycerol, 0.5 mM TCEP; 7.19 uM PI4KA complex with 61.8 uM EFR3A, or 6.78 uM TTC7B-FAM126A with 102.3 uM EFR3A; peaks checked by SDS-PAGE.

Assay [2] concerns the target T2, TTC7B-FAM126A (1 to 308) (human, UniProt Q86TV6 1-843; Q9BYI3 1-308).
T2 construct: N-terminal His10-2x Strep-TEV tag from the pOPT vector, cleaved with TEV; also called TTC7B-FAM126A ΔC; TTC7B-FAM126A dimer; source: E. coli BL21 DE3 C41, co-expressed, purified (HisTrap, StrepTrap, TEV cleavage, SEC)
Kind of assay: BLI; His-EFR3A (wild type or mutant) at 200 nM loaded on anti-penta-His tips, dipped in TTC7B-FAM126A (wild type or mutant) at 500 nM; 25°C, 20 mM HEPES pH 7.5, 150 mM NaCl, 0.01% BSA, 0.002% Tween-20; maximum response compared with wild type.

Assay [3] addresses T2, TTC7B-FAM126A (1 to 308). Kind of assay: BLI; His-MBP-EFR3A (721 to 791) at 200 nM loaded on anti-penta-His tips, TTC7B-FAM126A titrated; His-MBP responses subtracted; 25°C, 20 mM HEPES pH 7.5, 150 mM NaCl, 0.01% BSA, 0.002% Tween-20; KD by one site specific nonlinear regression of the response against concentration.

Residue numbers refer to the chain shown, from its start.

B1: EFR3A (721 to 791) (domain or fragment, human, UniProt Q14156 721-791, looked up)
chain: SNTEEITFEALKKAIDTSGMEEQEKEKRRLVIEKFQKAPFEEIAAQCESKANLLHDRLAQILELTIRPPPS
notes: EFR3A, human, residues 721 to 791; No tag cleavage is described for this protein; it was eluted from StrepTrap with desthiobiotin; also called EFR3A C terminus; EFR3A C terminal fragment; source: E. coli BL21 DE3 C41, purified (HisTrap, StrepTrap, SEC); not shown: His10, N-terminal, kept
With B1, the binding result in assay [1] is recorded as “binds”.

B2: EFR3A (721 to 791) I763A (domain or fragment, human, UniProt Q14156 721-791, looked up)
chain: B1 chain with I43A
notes: EFR3A, human, residues 721 to 791; source: E. coli BL21 DE3 C41, purified (HisTrap, StrepTrap, SEC); not shown: His10, N-terminal, kept
On to B2, for which the binding result with TTC7B-FAM126A (1 to 308) [2] is “binds”.

B3: EFR3A (721 to 791) F728A (domain or fragment, human, UniProt Q14156 721-791, looked up)
chain: B1 chain with F8A
notes: as for B2
B3: in the assay with TTC7B-FAM126A (1 to 308) [2], the binding result was “binds”.

B4: EFR3A (721 to 791) K732E (domain or fragment, human, UniProt Q14156 721-791, looked up)
chain: B1 chain with K12E
notes: as for B2
For B4, the binding result with TTC7B-FAM126A (1 to 308) [2] is reported as “binds”.

B5: His-MBP-EFR3A (721 to 791) (domain or fragment, human, UniProt Q14156 721-791, looked up)
chain: B1 chain
notes: source: E. coli BL21 DE3 C41, purified (HisTrap, StrepTrap, SEC); not shown: MBP, N-terminal, kept; His10, N-terminal, kept
In the assay with TTC7B-FAM126A (1 to 308) [3], B5 had a Kd of about 23.5 nM.

B6: EFR3A (721 to 791) A734R (domain or fragment, human, UniProt Q14156 721-791, looked up)
chain: B1 chain with A14R
notes: as for B2
In the case of B6, the binding result in the assay with TTC7B-FAM126A (1 to 308) [2] is on record as “binds”.
